Binding result and Kd data for four molecules are collected here from patent CN114702578A (BAISI MEDICAL DIAGNOSTICS TECH BEIJING CO LTD, dated 2022).

The target of assay [1] is T1, 新型冠状病毒Gamma突变株Spike RBD蛋白 (新型冠状病毒Gamma突变株 (SARS-CoV-2 Gamma …, UniProt P0DTC2 319-537)).
T1 construct: domain: Spike RBD; also called Gamma SPIKE RBD蛋白
Put plainly: indirect ELISA, RBD coated at 2 μg/mL.

The target in assay [2] is T2, 新型冠状病毒Alpha突变株Spike RBD蛋白 (新型冠状病毒Alpha突变株 (SARS-CoV-2 Alpha …, UniProt P0DTC2 319-537)).
T2 construct: domain: Spike RBD; also called Alpha SPIKE RBD蛋白
Put plainly: indirect ELISA, RBD coated at 2 μg/mL.

In assay [3] the target is T3, 新型冠状病毒Beta突变株Spike RBD蛋白 (新型冠状病毒Beta突变株 (SARS-CoV-2 Beta variant), UniProt P0DTC2 319-537).
T3 construct: domain: Spike RBD; also called Beta SPIKE RBD蛋白
Put plainly: indirect ELISA, RBD coated at 2 μg/mL.

For assay [4], the target named is T4, 新型冠状病毒Delta突变株Spike RBD蛋白 (新型冠状病毒Delta突变株 (SARS-CoV-2 Delta …, UniProt P0DTC2 319-537)).
T4 construct: domain: Spike RBD; also called Delta SPIKE RBD蛋白
Description: indirect ELISA, RBD coated at 2 μg/mL.

Assay [5] has as its target 新型冠状病毒Omicron突变株Spike RBD蛋白 (新型冠状病毒Omicron突变株 (SARS-CoV-2 Omicron …, UniProt P0DTC2 319-537)).
Assay [6] concerns the target T1, 新型冠状病毒Gamma突变株Spike RBD蛋白. Description: ELISA binding experiment (Fig. 3).
Assay [7] concerns the target T2, 新型冠状病毒Alpha突变株Spike RBD蛋白. Put plainly: ELISA binding experiment (Fig. 3).
Assay [8] has as its target T3, 新型冠状病毒Beta突变株Spike RBD蛋白. Description: ELISA binding experiment (Fig. 3).
Assay [9] has as its target T4, 新型冠状病毒Delta突变株Spike RBD蛋白. Put plainly: ELISA binding experiment (Fig. 3).

B1: 克隆号为1B12G6的抗体 (antibody, V domains shown)
VH: QVQLVQSGAEVKKPGSSVKVSCKASGGTFSSYTISWVRQAPGQGLEWLGRIIPILNIANYAQKFQGRVTITADKSTSTAYMELSSLRSEDTAVYYCARDGRASGLGATHYFDYWGQGTLVTVSS
VL: QSVLTQPPSVSGAPGQRVTISCTGSSSNIGAGYNVHWYQQLPGTAPKLLIYGNSNRPSGVPDRFSGSKSGTSASLAITGLQAEDEADYYCQSYDSSLSGSVFGGGTKLTVL
Take B1: the binding result in [1], in assay [2], in [3] and in assay [4] was “no binding (tested: 1 μg/mL)” in each case.

B2: 克隆号为9A5C5的抗体 (antibody, V domains shown)
VH: EVQLQQSGPELVKPGASVKISCKTSGYTFTEYTMHWVKQSHGKSLEWIGGINPNNGGTTYNQKFKGKATLTVDKSSSTAYMELRSLTSEDSAVYYCARDGYSFFDYWGQGTTLTVSS
VL: DIVLTQSPASLAVSLGQRATISCRASKSVSTSGYSYMHWYQQKPGQPPKLLIYLASNLESGVPARFSGSGSGTDFTLNIHPVEEEDAATYYCQHSRELFTFGSGTKLEIK
B2: the binding result in [1], in assay [2], in [3] and in [4] was “no binding (tested: 1 μg/mL)” each time.

B3: 克隆号为3C6E1的抗体 (antibody, V domains shown)
VH: EVQLVESGGGLIQPGGSLGLSCAASGFTVSSNYMSWVRQAPGRGLEWVSVIYGGGSTTYADSVKGRFTISRDNSKNTLNLQMNSLRAEDTAVYYCARGGRFLHVFDIWGQGTVVTVSS
VL: QSALTQPASVSGSPGQSITISCTGTSSDIGGYNYVSWYQQHPGKAPKLMIYDVTKRPSGVSNRFSGSKSGNTASLTISGLQAEDEADYHCSSYTSSSTRWVFGGGTKLTVL
For B3, the binding result in assay [1], in assay [2], in assay [3] and in assay [4] was “no binding (tested: 1 μg/mL)” throughout.

B4: 克隆号为3A7C12的抗体 (antibody, V domains shown)
VH: EVQLVESGGGLVKPGGSLRLSCAASGFTFSSYSMNWVRQAPGKGLEWVSSISSGSSYIYFADSVKGRFTISRDNAKNSLFLQMNSLRAEDTATYYCARAPLGYDSSGYFTMYYFDYWGQGTLVTVSS
VL: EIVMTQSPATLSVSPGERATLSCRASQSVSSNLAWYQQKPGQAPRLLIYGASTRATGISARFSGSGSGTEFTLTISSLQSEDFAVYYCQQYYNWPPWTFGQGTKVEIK
notes: also called 3A7C12克隆号抗体
In the case of B4, the Kd in [5] was 9.07 nM. In addition, the binding result in assay [6], in assay [7], in assay [8] and in [9] was “no binding” throughout.
